Patent publication US10189887B2, “Polypeptides and uses thereof for reducing CD95-mediated cell motility” (INSERM (INSTITUT NATIONAL DE LA SANTÉ ET DE LA RECHERCHE …, priority 2014, dated 2019)

Key:
CD95/PLCγ1 = target: T1, CD95/PLCγ1 (Homo sapiens, UniProt P19174); experiment: PLCγ1 recruitment to CD95 (immunoprecipitation and immunoblotting); type: cell-based
T1 construct: endogenous in cells; host or cells: CEM (human leukemic T-cell line)
T1 sequence (P19174 2-1290 limits assumed): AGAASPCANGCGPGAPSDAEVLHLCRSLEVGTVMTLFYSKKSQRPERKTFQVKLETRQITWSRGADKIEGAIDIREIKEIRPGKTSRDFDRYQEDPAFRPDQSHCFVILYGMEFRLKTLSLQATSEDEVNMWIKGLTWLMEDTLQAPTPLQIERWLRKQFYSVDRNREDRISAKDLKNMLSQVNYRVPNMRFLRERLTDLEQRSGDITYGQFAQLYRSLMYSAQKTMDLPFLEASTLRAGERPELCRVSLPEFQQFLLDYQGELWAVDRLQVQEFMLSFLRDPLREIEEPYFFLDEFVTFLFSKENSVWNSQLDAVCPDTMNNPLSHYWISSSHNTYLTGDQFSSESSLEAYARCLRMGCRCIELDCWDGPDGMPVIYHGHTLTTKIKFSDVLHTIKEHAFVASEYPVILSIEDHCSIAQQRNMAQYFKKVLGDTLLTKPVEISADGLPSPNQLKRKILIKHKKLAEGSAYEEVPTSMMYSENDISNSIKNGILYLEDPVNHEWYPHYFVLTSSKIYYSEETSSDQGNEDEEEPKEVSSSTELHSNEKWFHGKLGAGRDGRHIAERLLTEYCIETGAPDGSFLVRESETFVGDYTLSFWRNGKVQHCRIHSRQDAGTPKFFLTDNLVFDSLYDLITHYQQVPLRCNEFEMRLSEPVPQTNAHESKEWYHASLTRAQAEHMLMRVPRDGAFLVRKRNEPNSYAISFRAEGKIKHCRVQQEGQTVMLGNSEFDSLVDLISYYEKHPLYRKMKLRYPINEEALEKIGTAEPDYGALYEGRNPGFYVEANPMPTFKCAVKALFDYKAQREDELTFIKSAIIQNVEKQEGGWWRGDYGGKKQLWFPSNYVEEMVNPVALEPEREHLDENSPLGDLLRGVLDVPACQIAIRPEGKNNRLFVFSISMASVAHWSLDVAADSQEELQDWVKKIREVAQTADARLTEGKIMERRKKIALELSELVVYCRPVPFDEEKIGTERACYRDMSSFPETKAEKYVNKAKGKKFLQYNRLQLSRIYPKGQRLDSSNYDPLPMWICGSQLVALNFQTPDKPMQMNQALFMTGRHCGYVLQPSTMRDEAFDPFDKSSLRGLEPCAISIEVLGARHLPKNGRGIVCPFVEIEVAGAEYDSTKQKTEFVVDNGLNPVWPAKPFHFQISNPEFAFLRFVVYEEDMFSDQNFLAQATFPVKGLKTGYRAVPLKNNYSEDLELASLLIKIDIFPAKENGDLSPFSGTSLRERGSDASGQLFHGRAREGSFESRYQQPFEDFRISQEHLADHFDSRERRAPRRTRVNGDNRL
Description: T-cells (5×10^7 cells per condition) were stimulated with Ig-CD95L or cl-CD95L (100 ng/mL) for indicated times at 37° C. Cells were lysed, incubated with APO1.3 (1 ug/mL) for 15 min at 4° C. and CD95 was immunoprecipitated using A/G protein-coupled magnetic beads (Ademtech, Pessac, France) for 1 h. After extensive washing, the immune complex was resolved by SDS-PAGE and immunoblotting was performed with indicated antibodies.
Cells were lyzed for 30 minutes at 4° C. in lysis buffer (25 mM HEPES pH 7.4, 1% v/v Triton X-100, 150 mM NaCl, 2 mM EGTA supplemented with a mix of protease inhibitors (Sigma-Aldrich)). Protein concentration was determined by the bicinchoninic acid method (PIERCE, Rockford, Ill., USA) according to the manufacturer's protocol. Proteins were separated on a 12% SDS-PAGE and transferred to a nitrocellulose membrane (GE Healthcare, Buckinghamshire, England). The membrane was blocked 15 minutes with TBST (50 mM Tris, 160 mM NaCl, 0.05% v/v Tween 20, pH 7.8) containing 5% w/v dried skimmed milk (TBSTM). Primary antibody was incubated overnight at 4° C. in TBSTM. The membrane was intensively washed (TBST) and then the peroxydase-labeled anti-rabbit or anti-mouse (SouthernBiotech, Birmingham, Ala., US) was added for 45 minutes. The proteins were visualized with the enhanced chemiluminescence substrate kit (ECL, GE Healthcare).

[1] = system: apoptotic signaling pathway; experiment: CD95 apoptotic signaling pathway; type: cell-based; conditions: TAT-CID treatment

PLCγ1 recruitment to CD95 (CD95/PLCγ1; T cell lines Jurkat and CEM pre-incubated 1 h with 10 μM, cl-CD95L 100 ng/mL): impaired PLCγ1 recruitment
PLCγ1 binding to CD95 (CD95/PLCγ1; activated T lymphocytes from healthy subjects, pre-incubation): inhibited the PLCγ1 binding to CD95
Substance: TAT-CID: cell penetrating peptide linking the 36-amino acid-stretch of CID (CD95 residues 175 to 210) to the HIV-TAT sequence; SEQ ID NO: 6 (RKKRRQRRRKRKEVQKTCRKHRKENQGSHESPTLNPETVAINLSD; TAT-CID)
execution of the apoptotic signaling pathway [1]: did not affect the execution of the apoptotic signaling pathway
